# Test results: patent US20250195679A1, “ANTIBODY-DRUG CONJUGATE AND USE THEREOF” (SHANGHAI HUAOTA BIOPHARMACEUTICAL CO., LTD., priority 2022, published 2025)
# T1: CD73 on the cell surface of Calu6 cells (Homo sapiens, UniProt P21589)
# T1 construct: endogenous in cells; host or cells: Calu6
# T1 sequence (P21589 27-549): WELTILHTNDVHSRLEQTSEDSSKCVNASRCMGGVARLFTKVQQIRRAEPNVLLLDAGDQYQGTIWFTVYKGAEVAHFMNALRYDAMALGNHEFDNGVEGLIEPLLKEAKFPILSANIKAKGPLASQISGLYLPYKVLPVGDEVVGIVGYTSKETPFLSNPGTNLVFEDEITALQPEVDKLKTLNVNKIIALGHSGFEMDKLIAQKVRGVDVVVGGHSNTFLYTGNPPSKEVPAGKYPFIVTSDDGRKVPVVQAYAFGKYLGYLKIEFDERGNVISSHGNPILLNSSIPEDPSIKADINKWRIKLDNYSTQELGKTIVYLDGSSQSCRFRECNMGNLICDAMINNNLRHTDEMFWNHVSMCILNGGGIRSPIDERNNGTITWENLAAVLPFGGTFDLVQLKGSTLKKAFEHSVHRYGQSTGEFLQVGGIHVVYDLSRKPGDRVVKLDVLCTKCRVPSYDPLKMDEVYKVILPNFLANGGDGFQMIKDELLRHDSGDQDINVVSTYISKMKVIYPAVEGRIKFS
# T2: human CD73 (CHOK1-huCD73-3F4 cells) (Homo sapiens, UniProt P21589)
# T2 construct: host or cells: CHOK1-huCD73-3F4 (CHO-K1 clone)
# T2 sequence (P21589 27-549): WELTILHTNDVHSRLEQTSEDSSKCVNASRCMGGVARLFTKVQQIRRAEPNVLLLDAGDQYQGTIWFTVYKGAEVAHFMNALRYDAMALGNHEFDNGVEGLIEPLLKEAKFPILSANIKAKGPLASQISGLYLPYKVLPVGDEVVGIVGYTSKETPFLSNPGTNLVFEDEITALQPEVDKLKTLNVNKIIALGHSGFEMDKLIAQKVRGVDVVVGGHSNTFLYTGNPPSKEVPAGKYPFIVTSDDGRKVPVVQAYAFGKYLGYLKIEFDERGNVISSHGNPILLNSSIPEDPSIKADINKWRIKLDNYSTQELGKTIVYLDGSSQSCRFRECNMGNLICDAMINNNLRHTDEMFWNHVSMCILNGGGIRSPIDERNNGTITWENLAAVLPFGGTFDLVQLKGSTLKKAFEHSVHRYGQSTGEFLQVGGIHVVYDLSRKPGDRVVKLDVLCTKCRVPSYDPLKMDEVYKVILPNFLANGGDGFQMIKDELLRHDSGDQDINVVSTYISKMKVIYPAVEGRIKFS
# How the values were obtained:
# [1] = biological target: T1, CD73 on the cell surface of Calu6 cells; assay: Induction of endocytosis of CD73 antigen on cell surface (Calu6 cells, flow cytometry); type: cell-based; conditions: Example 5, 1 μg/mL, 5 h, 37° C. vs 4° C.
# Description: The antibody-drug conjugate 1 and the antibody-drug conjugate 2 prepared in Example 1 and the 900698 naked antibody were diluted to 1 μg/mL with a PBS solution, with 2 replicate wells set up for each concentration. Calu6 cells in the logarithmic growth phase were taken and prepared into a cell suspension at 2×10^5 cells/mL. The cell suspension was then added at 100 μL (about 20000 cells) per well to a 96-well U-bottom plate and centrifuged at 300 g for 3 min, and then the supernatant was discarded. Then, the diluted antigen-binding proteins were each added at 100 μL/well to resuspend the cells, and the mixture was mixed uniformly and incubated at 4° C. for 30 min. […] After the incubation was completed, the cells were washed twice and centrifuged at 300 g for 3 min, and the fluorescence intensity was detected by flow cytometry.
# The endocytosis efficiency of monoclonal antibodies 900698 and 900725 was compared through an endocytosis assay, with the procedures as follows: Anti-CD73 antigen-binding proteins such as the CD73 positive control antibody BMS-986179, 900698, and 900725 were diluted to 1 μg/mL with a PBS solution, with 2 replicate wells set up for each concentration. […] After the incubation was completed, the cells were washed twice and centrifuged at 300 g for 3 min, and the fluorescence intensity was detected by flow cytometry. […]
# [2] = biological target: T2, human CD73 (CHOK1-huCD73-3F4 cells); assay: Cell binding activity to human CD73 antigen expressed on membrane (flow cytometry); type: cell-based; conditions: FACS, FIG. 2
# Description: The binding activity of the antibody-drug conjugate 1 and the antibody-drug conjugate 2 prepared in Example 1 and the 900698 naked antibody to cells expressing human CD73 (CHOK1-huCD73-3F4, Huabo Biopharm) was assayed.
# All antigen-binding proteins were diluted to 30 μg/mL with a solution of 1% BSA in PBS (1% BSA/PBS), followed by a 3-fold dilution across 10 gradients. The diluted proteins were each added at 20 μL per well to a 96-well U-bottom plate, with a negative control (adding only 1% BSA/PBS) set up simultaneously. A suspension of cells expressing human CD73 (CHOK1-huCD73-3F4, Huabo Biopharm) in the logarithmic growth phase was taken and centrifuged (1000 rpm×5 min), and then the culture medium was discarded. The cells were resuspended in 1% BSA/PBS until the viable cell density was 1×10^6 cells/mL, then added at 20 μL (2×10^4 cells) per well to the 96-well U-bottom plate containing the anti-CD73 antigen-binding proteins, and incubated at room temperature for reaction for 30 min. The reacted cells in the 96-well U-bottom plate were resuspended in 1% BSA/PBS and centrifuged (300 g×3 min), and then the supernatant was discarded. This washing process was performed once. Then, a 1:200 dilution of PE-goat anti-human-Fc (Jackson ImmunoResearch, #109-115-098) was added, and the cells were incubated in the dark at room temperature for reaction for 15 min. The reacted cells in the 96-well U-bottom plate were further resuspended in 1% BSA/PBS and centrifuged (300 g×3 min), and then the supernatant was discarded. This washing process was performed 3 times. Finally, the cells were resuspended in 100 μL of 1% BSA/PBS per well, and the fluorescence intensity in the PE channel was detected using a flow cytometer (BD, #Canto II).
# The results for the binding activity of the antibody-drug conjugate 1, the antibody-drug conjugate 2, and the 900698 naked antibody are shown in FIG. 2 (represented as 1-3 in FIG. 2, respectively).
Molecule,Endocytosis efficiency (%) [1],binding activity (affinity) for cells expressing human CD73 [2]
"Antibody-drug conjugate 1: 900698 antibody cysteine-conjugated to SN-38 via Mc-VC-PAB-DMEDA-PEG linker, DAR about 7.8 (conjugate) VH: QVQLVESGGGLVKPGGSLRLSCAASGFTFSKYAMSWIRQAPGKGLEWVAEISSGGGYINYADSVKGRFTISRDNAKNSLYLQMNSLRAEDTAVYYCARAIYYYGSSYNYYAMDYWGQGTTVTVSS VL: DIQMTQSPSSLSASVGDRVTITCRASQDVGTAEAWYQQKPGKAPKLLIYWASTRHTGVPSRFSGSGSGTDFTLTISSLQPEDFATYYCQQYSSYPLTFGQGTKLEIK",about 95%,good affinity
"Antibody-drug conjugate 2: 900698 antibody cysteine-conjugated to SN-38 via MP2-VC-PAB-DMEDA-PEG linker, DAR about 7.8 (conjugate) VH: QVQLVESGGGLVKPGGSLRLSCAASGFTFSKYAMSWIRQAPGKGLEWVAEISSGGGYINYADSVKGRFTISRDNAKNSLYLQMNSLRAEDTAVYYCARAIYYYGSSYNYYAMDYWGQGTTVTVSS VL: DIQMTQSPSSLSASVGDRVTITCRASQDVGTAEAWYQQKPGKAPKLLIYWASTRHTGVPSRFSGSGSGTDFTLTISSLQPEDFATYYCQQYSSYPLTFGQGTKLEIK",about 95%,good affinity
"900698: anti-CD73 antibody, VH SEQ ID NO: 35, VL SEQ ID NO: 34 (antibody, V domains shown, 900696, 900698 (VH); 900695, 900698 (VL)) VH: QVQLVESGGGLVKPGGSLRLSCAASGFTFSKYAMSWIRQAPGKGLEWVAEISSGGGYINYADSVKGRFTISRDNAKNSLYLQMNSLRAEDTAVYYCARAIYYYGSSYNYYAMDYWGQGTTVTVSS VL: DIQMTQSPSSLSASVGDRVTITCRASQDVGTAEAWYQQKPGKAPKLLIYWASTRHTGVPSRFSGSGSGTDFTLTISSLQPEDFATYYCQQYSSYPLTFGQGTKLEIK",–,good affinity
